Source: paper PMC9940316 (2023)

Biological target: human plasma IgG1 (human, UniProt P01857 = IgG part)
Experiment: SPR; pH 7

Kd: 1300 nM
B1: FcγRIIa (receptor)
chain: QAAAPPKAVLKLEPPWINVLQEDSVTLTCQGARSPESDSIQWFHNGNLIPTHTQPSYRFKANNNDSGEYTCQTGQTSLSDPVHLTVLSEWLVLQTPHLEFQEGETIMLRCHSWKDKPLVKVTFFQNGKSQKFSHLDPTFSIPQANHSHSGDYHCTGNIGYTLFSSKPVTITVQVPSMGSSSPMGIIVAVVIATAVAAIVAAVVALIYCRKKRISANSTDPVKAAQFEPPGRQMIAIRKRQLEETNNDYETADGGYMTLNPRAPTDDDKNIYLTLPPNDHVNSNN
